Results published in US20240016931A1 (JIANGSU HENGRUI PHARMACEUTICALS, published 2024).
Changes are numbered by the printed parent chain. In names and notes the source's numbering stands.

B1: hu3-06 (antibody, human IgG1, kappa, V domains shown)
VH: EVQLVQSGAEVKKPGASVKVSCKASGYTFTDDYMNWVRQAPGQRLEWMGIISPYNGGTSYNQKFKGRVTLTVDKSASTAYMELSSLRSEDTAVYYCAREDYDYDGYAMDHWGQGTTVTVSS
VL: EIVLTQSPATLSLSPGERATLSCRASSSVSYMHWYQQKPGQAPRPWIYATSNLASGVPARFSGSGSGTDYTLTISRLEPEDFAVYYCQQWSSNRTFGGGTKVEIKR
notes: IgG1-YTE, kappa
B2: hu3-01 (antibody, human IgG1, kappa, V domains shown)
VH: B1 VH with L70I, V72R, K74T
VL: B1 VL with W46L, V57I
notes: IgG1-YTE, kappa
B3: hu3-02 (antibody, human IgG1, kappa, V domains shown)
VH: B1 VH with L70I, V72R, K74T
VL: B1 VL
notes: IgG1-YTE, kappa
B4: hu3-03 (antibody, human IgG1, kappa, V domains shown)
VH: B1 VH with L70I, V72R, K74T
VL: B1 VL with D69S
notes: IgG1-YTE, kappa
B5: hu3-04 (antibody, human IgG1, kappa, V domains shown)
VH: B1 VH
VL: B1 VL with P45L, W46L, V57I, Y70F
notes: IgG1-YTE, kappa
B6: hu3-05 (antibody, human IgG1, kappa, V domains shown)
VH: B1 VH
VL: B1 VL with W46L, V57I
notes: IgG1-YTE, kappa
B7: hu3-07 (antibody, human IgG1, kappa, V domains shown)
VH: B1 VH
VL: B1 VL with D69S
notes: IgG1-YTE, kappa
B8: hu3-08 (antibody, human IgG1, kappa, V domains shown)
VH: B1 VH with R38K, M48I, V68A
VL: B1 VL with W46L, V57I
notes: IgG1-YTE, kappa
B9: hu3-09 (antibody, human IgG1, kappa, V domains shown)
VH: B1 VH with R38K, M48I, V68A
VL: B1 VL
notes: IgG1-YTE, kappa
B10: hu3-10 (antibody, human IgG1, kappa, V domains shown)
VH: B1 VH with R38K, M48I, V68A
VL: B1 VL with D69S
notes: IgG1-YTE, kappa
B11: hu3-12 (antibody, human IgG1, kappa, V domains shown)
VH: B1 VH with H110Y
VL: B1 VL with D69S, W90S, S91D, S92N, N93V, T95G
notes: IgG1-YTE, kappa; also called hu3VH2-H110Y + hu3VL5
B12: hu179-09 (antibody, human IgG1, kappa)
heavy: EVQLVQSGAEVKKPGSSVKVSCKASGYTFSNYLIEWVRQAPGQGLEWIGVIDPGNGDTNYNENFKGRATLTADKSTSTAYIELSSLRSEDTAVYYCAREDNTGTAFDYWGQGTTVTVSSASTKGPSVFPLAPSSKSTSGGTAALGCLVKDYFPEPVTVSWNSGALTSGVHTFPAVLQSSGLYSLSSVVTVPSSSLGTQTYICNVNHKPSNTKVDKKVEPKSCDKTHTCPPCPAPELLGGPSVFLFPPKPKDTLYITREPEVTCVVVDVSHEDPEVKFNWYVDGVEVHNAKTKPREEQYNSTYRVVSVLTVLHQDWLNGKEYKCKVSNKALPAPIEKTISKAKGQPREPQVYTLPPSRDELTKNQVSLTCLVKGFYPSDIAVEWESNGQPENNYKTTPPVLDSDGSFFLYSKLTVDKSRWQQGNVFSCSVMHEALHNHYTQKSLSLSPGK
light: SIVMTQTPLSLSVTPGQPASISCKASQSVSSDVTWYLQKPGQSPQLLIYYVSNHYTGVPDRFSGSGSGTDFTLKISRVEAEDVGVYYCQQHHRFPLTFGQGTKLEIKRTVAAPSVFIFPPSDEQLKSGTASVVCLLNNFYPREAKVQWKVDNALQSGNSQESVTEQDSKDSTYSLSSTLTLSKADYEKHKVYACEVTHQGLSSPVTKSFNRGEC
notes: IgG1-YTE, kappa
B13: hu179-08 (antibody, human IgG1, kappa)
heavy: B12 heavy
light: B12 light with S1D
notes: IgG1-YTE, kappa
B14: hu179-10 (antibody, human IgG1, kappa, V domains shown)
VH: EVQLVQSGAEVKKPGSSVKVSCKASGYTFSNYLIEWVRQAPGQGLEWIGVIDPGNGDTNYNENFKGRATLTADKSTSTAYIELSSLRSEDTAVYYCAREDNTGTAFDYWGQGTTVTVSS
VL: SIVMTQTPLSLSVTPGQPASISCKASQSVSSDVTWYLQKPGQSPQLLIYYVSNHYTGVPDRFSGSGSGTDFTFKISRVEAEDVGVYYCQQHHRFPLTFGQGTKLEIKR
notes: IgG1-YTE, kappa
B15: hu179-11 (antibody, human IgG1, kappa, V domains shown)
VH: B14 VH
VL: B14 VL with S67Y, F73L
notes: IgG1-YTE, kappa
B16: hu179-16 (antibody, human IgG1, kappa)
heavy: B12 heavy with T28A, I81M
light: B12 light with S1D
notes: IgG1-YTE, kappa
B17: hu179-17 (antibody, human IgG1, kappa)
heavy: B12 heavy with T28A, I81M
light: B12 light
notes: IgG1-YTE, kappa
B18: hu179-18 (antibody, human IgG1, kappa, V domains shown)
VH: B14 VH with T28A, I81M
VL: B14 VL
notes: IgG1-YTE, kappa
B19: hu179-19 (antibody, human IgG1, kappa, V domains shown)
VH: B14 VH with T28A, I81M
VL: B14 VL with S67Y, F73L
notes: IgG1-YTE, kappa
B20: hu119-20 (antibody, human IgG1, kappa)
heavy: EAQLVQSGAEVKKPGSSVKVSCKASGFTFSTYNMHWVRQAPGQGLEWIGAIYPGNGETSYNQKFKDRATLTVDKSTSTAYMELSSLRSEDTAVYYCAREDDYGEGYFDVWGQGTTVTVSSASTKGPSVFPLAPSSKSTSGGTAALGCLVKDYFPEPVTVSWNSGALTSGVHTFPAVLQSSGLYSLSSVVTVPSSSLGTQTYICNVNHKPSNTKVDKKVEPKSCDKTHTCPPCPAPELLGGPSVFLFPPKPKDTLYITREPEVTCVVVDVSHEDPEVKFNWYVDGVEVHNAKTKPREEQYNSTYRVVSVLTVLHQDWLNGKEYKCKVSNKALPAPIEKTISKAKGQPREPQVYTLPPSRDELTKNQVSLTCLVKGFYPSDIAVEWESNGQPENNYKTTPPVLDSDGSFFLYSKLTVDKSRWQQGNVFSCSVMHEALHNHYTQKSLSLSPGK
light: EIVLTQSPATLSLSPGERATLSCRASESVDNSGLSFMHWYQQKPGQPPRLLLYRASNLGSGIPARFSGSGSGTDFTLTISSLEPEDFAVYYCQQINTDPLTFGQGTKLEIKRTVAAPSVFIFPPSDEQLKSGTASVVCLLNNFYPREAKVQWKVDNALQSGNSQESVTEQDSKDSTYSLSSTLTLSKADYEKHKVYACEVTHQGLSSPVTKSFNRGEC
notes: IgG1-YTE, kappa
B21: hu119-14 (antibody, human IgG1, kappa, V domains shown)
VH: EVQLVQSGAEVKKPGSSVKVSCKASGGTFSTYNMHWVRQAPGQGLEWIGAIYPGNGETSYNQKFKDRATLTVDKSTSTAYMELSSLRSEDTAVYYCAREDDYGEGYFDVWGQGTTVTVSS
VL: EIVLTQSPATLSLSPGERATLSCRASESVDNSGLSFMHWYQQKPGQAPRLLIYRASNLGSGIPARFSGSGSGTDFTLTISSLEPEDFAVYYCQQINTDPLTFGQGTKLEIKR
notes: IgG1-YTE, kappa
B22: hu119-15 (antibody, human IgG1, kappa, V domains shown)
VH: B21 VH with V2A, G27F
VL: B21 VL
notes: IgG1-YTE, kappa
B23: hu119-16 (antibody, human IgG1, kappa, V domains shown)
VH: B21 VH with S77R
VL: B21 VL
notes: IgG1-YTE, kappa
B24: hu119-17 (antibody, human IgG1, kappa, V domains shown)
VH: B21 VH with V2A, G27F, S77R
VL: B21 VL
notes: IgG1-YTE, kappa
B25: hu119-19 (antibody, human IgG1, kappa)
heavy: B20 heavy with A2V, F27G
light: B20 light
notes: IgG1-YTE, kappa
B26: hu119-21 (antibody, human IgG1, kappa)
heavy: B20 heavy with A2V, F27G, S77R
light: B20 light
notes: IgG1-YTE, kappa
B27: hu119-22 (antibody, human IgG1, kappa)
heavy: B20 heavy with S77R
light: B20 light
notes: IgG1-YTE, kappa

Biological target: T1, His-tagged human TSLP antigen (huTSLP-his) (human)
T1 construct: Secreted from HEK293E and purified on nickel; whole entry named; also called Human TSLP-his
Assay: ELISA, coated huTSLP-his;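 also: binding of antibodies to plate-bound TSLP read as absorbance at 450 nm after TMB colour development, EC50 derived from binding curves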
Experimental: The plate was incubated at 4° C. overnight. After the liquid was discarded, 5% skim milk (skim milk powder from Brightdairy) blocking solution diluted with PBS was added at 200 μL/well, and the plate was incubated in an incubator at 37° C. for 2 h for blocking. After the blocking, the blocking solution was discarded, and the plate was washed 3 times with a PBST buffer (PBS containing 0.1% (v/v) tween-20, pH 7.4). […] After the incubation, the plate was washed 3 times with PBST. […] After the plate was washed 6 times with PBST, a TMB chromogenic substrate (KPL, 52-00-03) was added at 50 μL/well, and the plate was incubated at room temperature for 10-15 min. Then, 1 M H₂SO₄ was added at 50 μL/well to stop the reaction. The absorbance at 450 nm was read with a NOVOStar microplate reader, and the EC₅₀ values for the binding of the TSLP antibodies to TSLP were calculated.

Binder | EC50 [nM]
B1 | 0.594
B2 | 0.849
B3 | 0.628
B4 | 0.554
B5 | 0.435
B6 | 0.517
B7 | 0.385
B8 | 0.469
B9 | 0.494
B10 | 0.388
B11 | 0.152
B12 | 0.157
B13 | 0.162
B14 | 0.19
B15 | 0.137
B16 | 0.229
B17 | 0.218
B18 | 0.246
B19 | 0.162
B20 | 0.341
B21 | 0.345
B22 | 0.35
B23 | 0.366
B24 | 0.351
B25 | 0.353
B26 | 0.399
B27 | 0.351
